Assay results from IntAct's records for PubMed 17662948.

Target: rd23b_human RAD23B (UniProt P54727)
Sequence (P54727 whole entry): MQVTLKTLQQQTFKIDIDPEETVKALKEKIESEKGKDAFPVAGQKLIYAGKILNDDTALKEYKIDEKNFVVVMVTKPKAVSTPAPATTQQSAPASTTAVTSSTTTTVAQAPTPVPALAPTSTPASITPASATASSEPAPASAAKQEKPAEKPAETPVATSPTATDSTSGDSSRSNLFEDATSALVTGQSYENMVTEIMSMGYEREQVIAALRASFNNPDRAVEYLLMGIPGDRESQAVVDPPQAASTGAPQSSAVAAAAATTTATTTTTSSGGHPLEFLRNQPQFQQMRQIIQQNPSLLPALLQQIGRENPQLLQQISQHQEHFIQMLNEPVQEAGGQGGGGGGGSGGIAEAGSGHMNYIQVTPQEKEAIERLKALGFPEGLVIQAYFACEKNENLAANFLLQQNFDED

Sequence of Paired box protein Pax-3 (Mus musculus), P24610 K475R (P24610 whole entry K475R): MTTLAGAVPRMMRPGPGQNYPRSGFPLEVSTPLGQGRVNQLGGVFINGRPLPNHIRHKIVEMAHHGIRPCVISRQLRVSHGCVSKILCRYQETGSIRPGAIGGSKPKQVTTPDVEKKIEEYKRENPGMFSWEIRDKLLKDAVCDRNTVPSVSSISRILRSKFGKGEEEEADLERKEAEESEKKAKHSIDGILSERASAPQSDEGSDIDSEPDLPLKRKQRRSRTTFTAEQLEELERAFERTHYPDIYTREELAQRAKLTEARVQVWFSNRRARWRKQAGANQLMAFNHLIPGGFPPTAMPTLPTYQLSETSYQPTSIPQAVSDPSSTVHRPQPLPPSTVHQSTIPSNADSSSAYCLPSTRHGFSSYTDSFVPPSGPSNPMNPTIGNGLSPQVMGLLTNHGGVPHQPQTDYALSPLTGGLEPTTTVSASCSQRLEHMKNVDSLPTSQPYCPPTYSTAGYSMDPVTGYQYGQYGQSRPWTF
Sequence of Paired box protein Pax-3 (Mus musculus), P24610 K437R (P24610 whole entry K437R): as the sequence (P24610 whole entry K475R) above, with K437R, R475K counted along it

Substance | effect of a mutation on the interaction
Paired box protein Pax-3 (Mus musculus), P24610 K475R | decreasing interaction
Paired box protein Pax-3 (Mus musculus), P24610 K437R | decreasing interaction
